In US20210206856A1 (PANDION OPERATIONS, published 2021):

T1: recombinant mouse MAdCAM-1 (mouse, UniProt Q61826 22-365, limits assumed)
T1 construct: also called mMAdCAM-1; mouse MAdCAM-Fc
T1 sequence (looked up): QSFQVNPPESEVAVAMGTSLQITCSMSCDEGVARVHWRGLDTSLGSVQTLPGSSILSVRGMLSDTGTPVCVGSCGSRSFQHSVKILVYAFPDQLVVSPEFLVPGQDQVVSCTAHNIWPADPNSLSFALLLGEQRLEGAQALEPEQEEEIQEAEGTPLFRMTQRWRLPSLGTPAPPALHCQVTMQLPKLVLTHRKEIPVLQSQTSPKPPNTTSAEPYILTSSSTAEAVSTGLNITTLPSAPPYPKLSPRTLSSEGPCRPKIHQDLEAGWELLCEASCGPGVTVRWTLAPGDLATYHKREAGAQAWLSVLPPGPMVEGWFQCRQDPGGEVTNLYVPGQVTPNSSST

T2: mouse MAdCAM expressed on cells (mouse, UniProt Q61826 22-405)
T2 construct: whole, on cells
T2 sequence (looked up): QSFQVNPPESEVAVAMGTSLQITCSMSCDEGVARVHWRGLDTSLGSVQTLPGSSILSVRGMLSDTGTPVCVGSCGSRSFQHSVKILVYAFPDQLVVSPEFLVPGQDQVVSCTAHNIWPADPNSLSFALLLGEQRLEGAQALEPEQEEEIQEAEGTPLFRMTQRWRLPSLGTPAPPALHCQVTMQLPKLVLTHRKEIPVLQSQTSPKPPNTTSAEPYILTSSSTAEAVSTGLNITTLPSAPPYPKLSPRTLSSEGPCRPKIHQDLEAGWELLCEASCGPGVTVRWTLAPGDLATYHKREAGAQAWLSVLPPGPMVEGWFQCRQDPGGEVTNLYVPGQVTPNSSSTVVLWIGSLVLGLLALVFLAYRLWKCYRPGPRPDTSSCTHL

T3: human MAdCAM expressed on cells (human, UniProt Q13477 19-382)
T3 construct: whole, on cells; also called MADCAM1
T3 sequence (looked up): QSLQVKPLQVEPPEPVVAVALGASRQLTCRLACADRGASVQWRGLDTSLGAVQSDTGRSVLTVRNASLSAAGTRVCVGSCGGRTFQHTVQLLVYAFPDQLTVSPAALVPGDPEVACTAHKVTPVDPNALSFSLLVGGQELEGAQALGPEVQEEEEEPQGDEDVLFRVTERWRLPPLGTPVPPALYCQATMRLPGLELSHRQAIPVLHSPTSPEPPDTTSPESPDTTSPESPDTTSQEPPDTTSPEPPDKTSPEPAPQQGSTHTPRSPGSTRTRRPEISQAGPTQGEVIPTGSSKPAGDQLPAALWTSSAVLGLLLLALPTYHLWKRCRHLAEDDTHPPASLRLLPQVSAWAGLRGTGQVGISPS

T4: CD25 (Homo sapiens (Human), UniProt P01589 22-240)
T4 construct: also called IL-2R alpha chain
T4 sequence: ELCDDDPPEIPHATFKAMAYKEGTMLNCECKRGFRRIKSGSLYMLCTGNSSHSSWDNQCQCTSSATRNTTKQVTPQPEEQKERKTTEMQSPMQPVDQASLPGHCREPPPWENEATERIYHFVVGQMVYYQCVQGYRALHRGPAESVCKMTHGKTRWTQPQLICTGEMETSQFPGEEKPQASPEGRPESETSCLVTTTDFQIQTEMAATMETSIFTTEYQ


Assays:
[1] = molecular target: T1, recombinant mouse MAdCAM-1; test: Octet
[2] = molecular target: T2, mouse MAdCAM expressed on cells; test: cell binding
[3] = molecular target: T3, human MAdCAM expressed on cells; test: cell binding
[4] = molecular target: T4, CD25; test: ELISA, CD25 coated plate

| Binder | binding result [1] | binding result [2] | binding result [3] | EC50 [4] [nM] |
| --- | --- | --- | --- | --- |
| MAdCAM Antibody Table 1 Clone 6 (scFv, also called Antibody Clone 6) scFv: EVQLLESGGGLVQPGGSLRLSCAASGFTFNNYAFHWVRQAPGKGLEWVSRINSYGTSTTYADSVKGRFTISRDNSKNTLYLQMNSLRAEDTAVYYCAREGPVAGYWYFDLWGQGTLVTVSSGGGGSGGGGSGGGGSGGGGSDIQMTQSPSSLSASVGDRVTITCRASQIIGTNLAWYQQKPGKAPKLLIYGASSLQSGVPSRFSGSGSGTDFTLTISSLQPEDFATYYCQQSYRLPFTFGQGTKVEIK | no binding | no binding | binds |  |
| MAdCAM Antibody Table 1 Clone 23 (scFv) scFv: EVQLLESGGGLVQPGGSLRLSCAASGFTFSSYAMHWVRQAPGKGLEWVSGISGSGGSAYYADSVKGRFTISRDNSKNTLYLQMNSLRAEDTAVYYCATSQAPVDYYYYGMDVWGQGTTVTVSSGGGGSGGGGSGGGGSGGGGSDIQMTQSPSSLSASVGDRVTITCRASQSISSWLAWYQQKPGKAPKLLIYAASNLQRGVPSRFSGSGSGTDFTLTISSLQPEDFATYYCQQSYSIPITFGQGTKVEIK | no binding | no binding | binds |  |
| MAdCAM Antibody Table 1 Clone 20 (scFv) scFv: EVQLLESGGGLVQPGGSLRLSCAASGFTFDDYAMHWVRQAPGKGLEWVSYIDTSSSHLYYADSVKGRFTISRDNSKNTLYLQMNSLRAEDTAVYYCARDEAAAGYYGMDVWGQGTTVTVSSGGGGSGGGGSGGGGSGGGGSDIQMTQSPSSLSASVGDRVTITCQAGQDISNYLNWYQQKPGKAPKLLIYDASNLETGVPSRFSGSGSGTDFTLTISSLQPEDFATYYCQQTYSTPITFGQGTKLEIK | no binding | no binding | binds |  |
| MAdCAM Antibody Table 1 Clone 19 (scFv) scFv: EVQLLESGGGLVQPGGSLRLSCAASGFTFDDYAMHWVRQAPGKGLEWVSGISWNSGSIGYADSVKGRFTISRDNSKNTLYLQMNSLRAEDTAVYYCAKDIVAAGHYYYGMDVWGQGTTVTVSSGGGGSGGGGSGGGGSGGGGSDIQMTQSPSSLSASVGDRVTITCQASQDISNYLNWYQQKPGKAPKLLIYDASNLETGVPSRFSGSGSGTDFTLTISSLQPEDFATYYCQQSYSTPLTFGGGTKVEIK | no binding | no binding | binds |  |
| human IL-2 mutein fused N-terminally to human IgG1 Fc domain (SEQ ID NO: 57) (Fc fusion, also called IL-2 N88D V69A, Q74P-G4Sx4-Fc) APTSSSTKKTQLQLEHLLLDLQMILNGINNYKNPKLTRMLTFKFYMPKKATELKHLQCLEEELKPLEEALNLAPSKNFHLRPRDLISDINVIVLELKGSETTFMCEYADETATIVEFLNRWITFSQSIISTLTGGGGSGGGGSGGGGSGGGGSDKTHTCPPCPAPEAAGAPSVFLFPPKPKDTLMISRTPEVTCVVVDVSHEDPEVKFNWYVDGVEVHNAKTKPREEQYNSTYRVVSVLTVLHQDWLNGKEYKCKVSNKALPAPIEKTISKAKGQPREPQVYTLPPSREEMTKNQVSLTCLVKGFYPSDIAVEWESNGQPENNYKTTPPVLDSDGSFFLYSKLTVDKSRWQQGNVFSCSVMHEALHNHYTQKSLSLSPG |  |  |  | < 1 |
| IL-2 mutein SEQ ID NO: 55 (Fc fusion, also called IL-2 L80I N88D V69A, C125S Q74P-G4Sx4-Fc) APTSSSTKKTQLQLEHLLLDLQMILNGINNYKNPKLTRMLTFKFYMPKKATELKHLQCLEEELKPLEEALNLAPSKNFHIRPRDLISDINVIVLELKGSETTFMCEYADETATIVEFLNRWITFSQSIISTLTGGGGSGGGGSGGGGSGGGGSDKTHTCPPCPAPEAAGAPSVFLFPPKPKDTLMISRTPEVTCVVVDVSHEDPEVKFNWYVDGVEVHNAKTKPREEQYNSTYRVVSVLTVLHQDWLNGKEYKCKVSNKALPAPIEKTISKAKGQPREPQVYTLPPSREEMTKNQVSLTCLVKGFYPSDIAVEWESNGQPENNYKTTPPVLDSDGSFFLYSKLTVDKSRWQQGNVFSCSVMHEALHNHYTQKSLSLSPG |  |  |  | < 1 |
| IL-2 mutein SEQ ID NO: 54 (Fc fusion, also called IL-2 L56I N88D V69A, Q74P, C125S-G4Sx4-Fc) APTSSSTKKTQLQLEHLLLDLQMILNGINNYKNPKLTRMLTFKFYMPKKATELKHIQCLEEELKPLEEALNLAPSKNFHLRPRDLISDINVIVLELKGSETTFMCEYADETATIVEFLNRWITFSQSIISTLTGGGGSGGGGSGGGGSGGGGSDKTHTCPPCPAPEAAGAPSVFLFPPKPKDTLMISRTPEVTCVVVDVSHEDPEVKFNWYVDGVEVHNAKTKPREEQYNSTYRVVSVLTVLHQDWLNGKEYKCKVSNKALPAPIEKTISKAKGQPREPQVYTLPPSREEMTKNQVSLTCLVKGFYPSDIAVEWESNGQPENNYKTTPPVLDSDGSFFLYSKLTVDKSRWQQGNVFSCSVMHEALHNHYTQKSLSLSPG |  |  |  | < 1 |
| IL-2 mutein SEQ ID NO: 53 (Fc fusion, also called IL-2 L53I N88D V69A, Q74P, C125S-G4Sx4-Fc) APTSSSTKKTQLQLEHLLLDLQMILNGINNYKNPKLTRMLTFKFYMPKKATEIKHLQCLEEELKPLEEALNLAPSKNFHLRPRDLISDINVIVLELKGSETTFMCEYADETATIVEFLNRWITFSQSIISTLTGGGGSGGGGSGGGGSGGGGSDKTHTCPPCPAPEAAGAPSVFLFPPKPKDTLMISRTPEVTCVVVDVSHEDPEVKFNWYVDGVEVHNAKTKPREEQYNSTYRVVSVLTVLHQDWLNGKEYKCKVSNKALPAPIEKTISKAKGQPREPQVYTLPPSREEMTKNQVSLTCLVKGFYPSDIAVEWESNGQPENNYKTTPPVLDSDGSFFLYSKLTVDKSRWQQGNVFSCSVMHEALHNHYTQKSLSLSPG |  |  |  | < 1 |
| IL-2 mutein SEQ ID NO: 56 (Fc fusion, also called IL-2 L118I N88D V69A, Q74P, C125S-G4Sx4-Fc) APTSSSTKKTQLQLEHLLLDLQMILNGINNYKNPKLTRMLTFKFYMPKKATELKHLQCLEEELKPLEEALNLAPSKNFHLRPRDLISDINVIVLELKGSETTFMCEYADETATIVEFINRWITFSQSIISTLTGGGGSGGGGSGGGGSGGGGSDKTHTCPPCPAPEAAGAPSVFLFPPKPKDTLMISRTPEVTCVVVDVSHEDPEVKFNWYVDGVEVHNAKTKPREEQYNSTYRVVSVLTVLHQDWLNGKEYKCKVSNKALPAPIEKTISKAKGQPREPQVYTLPPSREEMTKNQVSLTCLVKGFYPSDIAVEWESNGQPENNYKTTPPVLDSDGSFFLYSKLTVDKSRWQQGNVFSCSVMHEALHNHYTQKSLSLSPG |  |  |  | < 1 |
